Measurements from patent US20260056186A1 (JIANGSU HENGRUI PHARMACEUTICALS, published 2026).
Each block holds one binder with its values, some of them ahead of it.

Legend:
[1] = biological target: T1, APRIL (Acro Biosystems, Cat: APL-H52D1) (UniProt O75888 115-250, limits assumed); assay: ELISA, APRIL coated; reference telitacicept; range told of the 3 fusion proteins, upper end tied to B613301 by Table 8
T1 construct: also called ARPIL
T1 sequence (looked up): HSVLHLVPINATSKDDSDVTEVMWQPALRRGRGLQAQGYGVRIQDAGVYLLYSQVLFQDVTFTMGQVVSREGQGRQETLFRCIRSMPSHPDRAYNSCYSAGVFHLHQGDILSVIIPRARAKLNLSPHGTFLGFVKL
Procedure: (§1) The capabilities of B613301, B613302, and B613303, which are fusion proteins of anifrolumab and TACI-BCMA, to bind to BAFF and APRIL were assessed by ELISA as follows: [0548] BAFF (PeproTech, Cat: 310-13) or ARPIL (Acro Biosystems, Cat: APL-H52D1) was diluted to 1 μg/mL with PBS, and a 96-well plate (Costar, Cat: 3590) was coated with the dilution overnight at 4° C. The plate was washed with PBST and blocked with Blocking Buffer (PBST containing 1% BSA) at 37° C. for 1 h. The plate was tapped. The test antibodies were diluted with Blocking Buffer. Incubation was performed at 37° C. for 1.5 h. The plate was washed with PBST. An HRP-mouse anti-human Fc antibody (GenScript, Cat: A01854-200) was diluted with Blocking Buffer. Incubation was performed at 37° C. for 40 min. The plate was washed with PBST. 100 μL of TMB substrate solution (Biopanda, Cat: TMB-S-003) was added, and color development was performed at 37° C. for 3 min. 100 μL of ELISA stop solution (Solarbio, Cat: C1058) was added. OD450 was measured.

[2] = biological target: T1, APRIL (Acro Biosystems, Cat: APL-H52D1); assay: ELISA, APRIL coated at 1 ug/mL, anti-human Fc-HRP, OD450
Procedure: as §1

[3] = biological target: T1, APRIL (Acro Biosystems, Cat: APL-H52D1); assay: ELISA, APRIL coated; reference telitacicept; range told of the 3 fusion proteins, lower end tied to B613302 by Table 8
Procedure: as §1

EC50 relative to telitacicept [1]: 0.167 fold
EC50 [2]: 201 pM
Emax [2]: 2.49
B1: B613301 (other)
heavy: EVQLVQSGAEVKKPGESLKISCKGSGYIFTNYWIAWVRQMPGKGLESMGIIYPGDSDIRYSPSFQGQVTISADKSITTAYLQWSSLKASDTAMYYCARHDIEGFDYWGRGTLVTVSSASTKGPSVFPLAPSSKSTSGGTAALGCLVKDYFPEPVTVSWNSGALTSGVHTFPAVLQSSGLYSLSSVVTVPSSSLGTQTYICNVNHKPSNTKVDKRVEPKSCDKTHTCPPCPAPEFEGGPSVFLFPPKPKDTLMISRTPEVTCVVVDVSHEDPEVKFNWYVDGVEVHNAKTKPREEQYNSTYRVVSVLTVLHQDWLNGKEYKCKVSNKALPASIEKTISKAKGQPREPQVYTLPPSRDELTKNQVSLTCLVKGFYPSDIAVEWESNGQPENNYKTTPPVLDSDGSFFLYSKLTVDKSRWQQGNVFSCSVMHEALHNHYTQKSLSLSPGK
light: EIVLTQSPGTLSLSPGERATLSCRASQSVSSSFFAWYQQKPGQAPRLLIYGASSRATGIPDRLSGSGSGTDFTLTITRLEPEDFAVYYCQQYDSSAITFGQGTRLEIKRTVAAPSVFIFPPSDEQLKSGTASVVCLLNNFYPREAKVQWKVDNALQSGNSQESVTEQDSKDSTYSLSSTLTLSKADYEKHKVYACEVTHQGLSSPVTKSFNRGECGGGGSGGGGSLSCRKEQGKFYDHLLRDCISCASICGQHPKQCAYFCENKLRSPGMLQMAGQCSQNEYFDSLLHACIPCQLRCSSNTPPLTCQRYCNASVTNSVKGTNA
notes: Fusion protein of anifrolumab and TACI-BCMA

EC50 [2]: 124 pM
Emax [2]: 2.52
EC50 relative to telitacicept [3]: 0.1 fold
B2: B613302 (other)
heavy: B1 heavy
light: EIVLTQSPGTLSLSPGERATLSCRASQSVSSSFFAWYQQKPGQAPRLLIYGASSRATGIPDRLSGSGSGTDFTLTITRLEPEDFAVYYCQQYDSSAITFGQGTRLEIKRTVAAPSVFIFPPSDEQLKSGTASVVCLLNNFYPREAKVQWKVDNALQSGNSQESVTEQDSKDSTYSLSSTLTLSKADYEKHKVYACEVTHQGLSSPVTKSFNRGECGGGGSGGGGSMLQMAGQCSQNEYFDSLLHACIPCQLRCSSNTPPLTCQRYCNASVTNSVKGTNALSCRKEQGKFYDHLLRDCISCASICGQHPKQCAYFCENKLRSPG
notes: as for B1
